Experimental data as given in US20220332804A1 (CSL INNOVATION, published 2022).
Substitutions are numbered along the chain they refer to.

How the values were obtained:
Test in all cases: SPR, KD relative to WT C2;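 also: biacore SPR at 37 °C, anti-C2 mAbs captured via immobilised goat anti-human IgG, C2 alanine or serine surface mutants as analytes, 1:1 model fitted, double-referenced sensograms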
human C2 D441A = target: T1, human C2 D441A (human, UniProt P06681 21-752)
T1 sequence: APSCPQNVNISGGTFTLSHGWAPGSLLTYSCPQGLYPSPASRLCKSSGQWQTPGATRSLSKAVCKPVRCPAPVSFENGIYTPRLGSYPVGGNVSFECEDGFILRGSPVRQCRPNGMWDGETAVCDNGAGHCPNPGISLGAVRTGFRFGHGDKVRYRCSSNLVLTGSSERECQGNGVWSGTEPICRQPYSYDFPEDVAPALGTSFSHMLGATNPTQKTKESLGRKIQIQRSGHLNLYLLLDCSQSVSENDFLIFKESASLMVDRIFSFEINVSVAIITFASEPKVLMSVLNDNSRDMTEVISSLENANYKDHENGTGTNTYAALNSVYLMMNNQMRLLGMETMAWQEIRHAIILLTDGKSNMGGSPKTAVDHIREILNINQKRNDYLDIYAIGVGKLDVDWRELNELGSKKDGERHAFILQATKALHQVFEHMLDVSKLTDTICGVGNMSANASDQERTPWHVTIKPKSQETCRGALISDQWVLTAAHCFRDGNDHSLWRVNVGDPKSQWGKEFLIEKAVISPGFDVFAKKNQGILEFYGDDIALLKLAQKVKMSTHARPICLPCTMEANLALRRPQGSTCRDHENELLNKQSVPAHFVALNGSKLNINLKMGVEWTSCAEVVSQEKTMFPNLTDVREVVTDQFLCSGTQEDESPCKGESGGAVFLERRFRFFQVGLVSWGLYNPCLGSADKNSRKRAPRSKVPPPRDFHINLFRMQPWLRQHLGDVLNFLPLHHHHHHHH

human C2 H451A = target: T2, human C2 H451A (human, UniProt P06681 21-752)
T2 sequence: T1 sequence with A421D, H431A

human C2 T483A = target: T3, human C2 T483A (human, UniProt P06681 21-752)
T3 sequence: T1 sequence with A421D, T463A

human C2 E275A = target: T4, human C2 E275A (human, UniProt P06681 21-752)
T4 sequence: T1 sequence with E255A, A421D

B1: RF16-226 (antibody, human IgG4 S228P, lambda)
heavy: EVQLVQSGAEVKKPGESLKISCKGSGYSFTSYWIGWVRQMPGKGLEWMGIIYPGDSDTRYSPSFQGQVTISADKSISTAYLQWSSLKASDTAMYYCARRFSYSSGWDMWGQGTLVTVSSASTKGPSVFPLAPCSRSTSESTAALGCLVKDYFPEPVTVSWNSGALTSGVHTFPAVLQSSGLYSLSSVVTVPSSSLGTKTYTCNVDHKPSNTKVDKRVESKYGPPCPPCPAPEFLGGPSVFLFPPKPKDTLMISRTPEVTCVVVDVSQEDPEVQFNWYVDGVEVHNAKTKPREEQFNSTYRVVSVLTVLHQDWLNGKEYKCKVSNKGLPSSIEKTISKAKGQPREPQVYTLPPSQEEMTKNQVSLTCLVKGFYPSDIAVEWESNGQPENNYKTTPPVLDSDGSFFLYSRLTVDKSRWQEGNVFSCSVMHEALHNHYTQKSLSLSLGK
light: SYELTQPPSVSVSPGQTARITCSGDALTSKYVAWYQQKSGLAPLLVIYEDTRRPSGIPAKFSGSSSGSVATLTISGAHGDDEADYYCYSTDASGHQRVFGGGTKLTVLSQPKAAPSVTLFPPSSEELQANKATLVCLISDFYPGAVTVAWKADGSPVKAGVETTKPSKQSNNKYAASSYLSLTPEQWKSHRSYSCQVTHEGSTVEKTVAPTECS
notes: pH-dependent anti-C2 antibody from a phage display library; also called WT
Fold diff (human C2 D441A): 6 fold | Fold diff (human C2 H451A): 11 fold | Fold diff (human C2 T483A): 1 fold | Fold diff (human C2 E275A): 1 fold
